Substrate: BHET
Details: 120 h

B1: unnamed (protein)
chain: MFNIRKVAVAASVLLVSMAASAQYQKGPNPTASALERTGSFSTGSSSVSSLSASGFGGGNLYYPTASGTYGAIALCPGFTATSSSLAWLGPRLASHGFVVLIIDTNSTLDQPDSRGRQLKAATDYLVAQNSRTGSPIRGKVDTSRLAVGGHSMGGGGTLEAIRDNPSYKAGMPLAPWNTTKSFSRITVPTLIIGGSADTVAPDGSHSIPFYTSIPSSTAKIFMELRGGSHFFPQTSDPNVSRFAISWYKRWLDLDTRYSTFLNTRPSTTAVSDFRVSRTF
  plate clearing: not clears the plate

B2: unnamed (protein)
chain: MKLERSVAQATSVARGARRHEKPSSLTSVALAGVSLALFSTFAHADVLLQENFDGNLGQFSSSGSVTVTTSGARMAGSYGGTDGAITSPAISTVGFTGLSLSYTRTTTGLDSGEGGFLEYSTNGTTFTSLGSTQSASGPVTVALPAAVENQAALRLRWRVNASLSSEYYTVDTILLEGTGGTSCEPNCPPTGNPYQRGPAPTVSSLQATTGPFQTASSAVSSSAADGYGGGTIYYPTNTTEGPFAAIAVVPGYLSPQSSIQQWGPRLASWGFVVITIATNSTSDQPSSRATQLVAALDQVVSYSNSTSHAIRGKVDPARLGVAGWSMGGGGTLIALDRNATKLKAGMAFAPWNSSTNFSGVNQPALIFGCESDGTAPVSSHSLPFYNSMPSTNDKAFAEVNNGGHSCANDPRNNSGMIGRYGVSWMKRFLDNDTRFSDFLCGAPHDTAVSGSTFSRYLETCPY
  plate clearing: clears the plate (z > 3 vs empty vector)

B3: unnamed (protein)
chain: MSLVSHRAATTRACSKPQTEISRSPRNRRGAFIACVSLALVSSFAHADVLLQENFDGTLGQFTSVGSVSVTTSGARMAGSFGGTDGAITSAAISTVGFTALSLSYTRTTTGLDSGEAGILEYSTNGTTYTSLGSTQSASGPVTVGLPAAAENQAGLRLRWRVNASSSSEYYTVDSIQLQGTGGTSCEPNCPPTGNPYQRGPAPTTSTLDATSGSFTVDSVTVSSTAANGYGGGTIYYPVNTTEGPFAAIAVIPGYLSPQSSIQQWGPRLASWGFVVITITTNSGSDQPSSRATQLVAALDQVVSYSNSTTHAIRGKVDPTRLGVAGWSMGGGGSLIALDRNPTKLKAGMMFAPWNSSTNFSGVNQPALIFACESDGTAPVSSHALPFYNSIPSSNDKAFAEVNNGSHSCANDPRNNSGRLGRYGVSWMKRFLDDDTRFTEFLCGAPHSSVISGTTTYSRYLSTCPY
  plate clearing: clears the plate (z > 3 vs empty vector)

B4: unnamed (protein)
chain: MKKSILEKIAVGTGALLFSVSAFSFTPSPTPDPDPDPDPTPCQGECDFTRGPNPTSSYLEASRGPYTVRNVSVSRSVSGFGGGTIHYPTNTTGTMGAIAIVPGFLAGESSISWWGPRLASHGFVVITIATNSTFDQPASRETQLGRALDYLVSQSNSSSSPISGKVDSARLGAMGWSMGGGGTLRLASGSRLVAAIPLAPWHSGSNNFNRIQTPTMIIACENDTTAAVRSHASPFYNSIPSSTDKAFLEINNGSHSCANGGGSNGGLLGKYGVSWMKRFMDQDTRYNQFLCGPNHAANSAISEYRETCNY
  plate clearing: not clears the plate

B5: unnamed (protein)
chain: MDKTRLFSTLSMVTSALLFSISVSAGKPSKGGDEPAPEPAACISDTDITSAALSSTGSSGPFTVSTKDVSRWSASGFGGGTIHYPTGAGDCGPIGGIAVVPGYVSYEASIKWWGPRLASWGFVVITINTNSIYDQPDSRATQLSAALDHIINDSTVGSMVDSSRLGAIGWSMGGGGALKLATDRSEVKAIIPQAPWYSGRYGRMKTPAFMIGCENDFVAPTSNHVDVFYANASGPKMKIEVNNGDHSCANSGYNETLLGKPGIAWMQRYIHGDTRFNQFLCGNENYGSSNSVSAYDFESCP
  plate clearing: not clears the plate

B6: unnamed (protein)
chain: MRPTRCPSRATSPLRSRSRVLAVLIVMATTLASTLLTVSVTPAATAARQSQSRSVAGSSSEHASVRATIPDPTTASLEATNGPLAIATYTVPQPSGYGSGTITYPTARGSYPAVVLMPGYQGTQQNLQWVAPRLASWGFIVINVGTKTLGDDPASRGRQISAAGTQLLSLGSVAGNPLYGKMNGTLGAAGHSMGGGGVMAALREDSRFTAGMPLAPYYPNQNFSGVTDPTFFLTCKSDPVAHGNTYALPWYNSMSQAEKLYIEVPGDHLCPMTGYGNKAKQGKWIVSFFSRWLYGDTRFSPFLCGAAREADKNNPSLVTRWQDTCPF
  plate clearing: not clears the plate

B7: unnamed (protein)
chain: MQRQTCTTPVGPFHPQETSPMTLTSTLQRFAGIRPFALALPLAAIGWVAQAQTNPPTSSLLNATAGPLTVSTSSVSSFAARGFGGGTIYYPDATGSYGVVAISPGYTARQSSIAWLGRRLATHGFVVITIDTNSTLDQPPSRATQLMAALGHVVNNANATVRSRVDASKQAVAGHSMGGGGSLIAAQNNPTLKAAYPLTPWSVSKNYGTVRVPTMIIGADGDTIAAVTTHSRAFYNSLSSTVFKAYGELNNASHFTPNSTNTPIGRYAVSWMKRFVDSDTRYSPFLCGAPHDSYATRTVFDRYERNCPY
  plate clearing: not clears the plate

B8: unnamed (protein)
chain: MHAVTSLGFVRASTAPGGRGWRRLAWALALGCGLGVGTTASYAQATGPNPSSAFLNASAGPLRVATESVSSFVTGFGGGTIYYPSTAGRYGVIAISPGFTATESSVAWLGRRLASHGFVAIVINTNSTLDQPASRATQLMAALRHATTGASSTVRARIDSTRQAVAGHSMGGGGTLIAAEDNPTLKAAIPLTPWNLSTSFNGVRVPTLIVGADGDTVASVAVHARPFYASLPASTFKAYAELNGASHFAPNTTNTPIGRYSVAWAKRFIDGDTRYSPFLCGAEHRAYATAAVFDRYNQNCPY
  plate clearing: not clears the plate

B9: unnamed (protein)
chain: MRTSRTRPLRRLAAALVLALAVVLAACDIRGPDPTEQSLTASSGPFAVGTLAVPSSAGFGGGTIYYPTNTEGPFAVISVTPGFTGTQSSIAGWGPRLASHGFVAITINTTNTFENPDTRSTEQRQALTYVVNQSNTSSSPIYGKVDGNRRGVAGHSMGGGGTLISAQADPTIRAAVPLAPWNSSTNFSNVTVPTLILACQNDSIAPVASHASPMYNSIPATTDKSYLSIAGGDHFCANSPTGGSGNVGKYGVAFFKRFLDGDTRYDPWVCGASKPAAGSAINEVRSTCPF
  plate clearing: not clears the plate

B10: unnamed (protein)
chain: MPMYKLNHVFFAVALAACSALGCAEGSDGSTVSTGGDGVGGGAGETDLPAGAGGTAGVGGAAGSVDPSDIAGTGGSAGTAGETVAGSSGVPVAGTGGIPVAGSGGTGIVDSGGIGGGGAGGTLENNNFIRGPAPTAQSASQAGPYDVQSTTQGLRDPAEYGTQTLWYPTDAEPPFAAIAIVPGFVSPEGSIANWGPFLASHGIVVLTIGTNTGGDLPEVRSAALLAALDTIKAEHTRQGSPIEGKIDTGKLAVGGWSMGGGGTLLTITAHPELKAGLGICPWYMNAFAFAGNTVPVIMFAGTMDVLAGGMSQGFYDAIPASTPKMLFEIAGADHFYANDPLNVANPFTVQVGLYGLSWLKVFLEGDDRYRQFLLNPPQNASDFRTTVK
  plate clearing: not clears the plate

B11: unnamed (protein)
chain: MTSTTVRFAKRLIGAAALLATASVFAQSLPSDAALQATSGPLKIAQANIATPNGYGSGTVYYPTTGTNMGLVVIAPGFTEGPSFNAFWGEKLASWGFVAVNIGTKTTLDLPGPRATQMWAALQQVAALSKTSGSPFAGKVDANRLAAMGHSMGGGGTLLISQDHPTLKAAIPMAPWNLTQKNFPKITVPQLMFACQNDIIAPVSGHADRFWTSFNTTLPRVFAESKGQDHFCPTNLTSAAEKAAFGRIAIAWYKIYLDGDTQYKQVITNGNSPVFSRYLTGGL
  plate clearing: not clears the plate

B12: unnamed (protein)
chain: MRKIASALEIAALVLASFAAGCGDDGSSNDNPMGMTTQTANTGTPDTGVSTMVPPASTDAGTSTNVGNTNTGTLDAGMVGSTTGIKPAVDSGAVDTGVALGDASSDSGSVAVGDGGGVISPVTPIMRGDAPTKASATAKGPYKVMSYTSGFPVTLYGGGTIWYPTDAEAPFGAVAICPGFTAAQSSIMNWGPFLASHGIVALTMDTATPLDVVDQRADELMDALASIKSENDRAASPIYKKIDTMRLGVMGWSMGGGGTWLAADMHPELRSAVTFAGHIVTAVNQDVSMVHVPTLMFAGSADNAILGGGMSQGVYDGIPESTPKMVWEIMGAGHDVANDPANTSGAVGRYGLSWEKVYLEGDMRYRQFLLEMPPTASYFKTNVK
  plate clearing: not clears the plate

B13: unnamed (protein)
chain: MKTIARWQRRCAVGLGLLLLAAAAQSQTNPFQKGPDPTSTILNATAGPFAVATASVPSSVAGFGGGTVYYPTTAGSYAALALCPGFTATQSSIAWIGRRLATHGFVVITINTNSTFDQPPSRATQLMAALRYLTNSSSTTVRSRIDANRLGVGGHSMGGGGTLMATRDNPSLKVGIPMTPWSSTKSFSTVRVPTIIFGGENDTVAPVSSHSIPFYTSLPSSLDKAYAELNGASHFAPNSTNTPIGRYAVSWAKRFMDNDTRYDTFLCGSAHTAFATPAVFSDYRSTCPY
  plate clearing: not clears the plate

B14: unnamed (protein)
chain: MKTNRRRRLGRLALAAAALLLSVAAQAQNGSAPPGPDPDPDPNPPESDNPYPRGPDPTAATLEASSGPFAVSSFRPSSTPGFGGGTIYYPTNTNEGPFAAIAVAPGFVGTESTIDWLGPRLASHGFVVITIDTNSLFDFPDSRASQLMAALDIVIAESNGSSPISGLVDPDRTGLMGHSMGGGGSLIAARDNPTIDAVIPLAPWNSSTNFSAIDVPTLIVACENDTVAPVSQHASPMYESIPSSVDKAFLEINGGDHFCANSGNANQDILGKYIVSWMKRFLDQDTRYDPFLCGPNHEADPDISEYRDTCPY
  plate clearing: not clears the plate

Reference: the PETadex activity labels
